# In patent US20060074081A1 (Pfizer, published 2006):
# Target: the molecule itself
# Test: size-exclusion chromatography of the PR-LBD/tanaproget complex
protein,measurement,value
"Human progesterone receptor ligand binding domain (PR-LBD), polypeptide following thrombin cleavage of the GST fusion (receptor, In the size-exclusion run and in the crystal each chain carried the small molecule tanaproget; also called human PR-LBD; PR-LBD (675-933)) GSPGQDIQLIPPLINLLMSIEPDVIYAGHDNTKPDTSSSLLTSLNQLGERQLLSVVKWSKSLPGFRNLHIDDQITLIQYSWMSLMVFGLGWRSYKHVSGQMLYFAPDLILNEQRMKESSFYSLCLTMWQIPQEFVKLQVSQEEFLCMKVLLLLNTIPLEGLRSQTQFEEMRSSYIRELIKAIGLRQKGVVSSSQRFYQLTKLLDNLHDLVKQLHLYCLNTFIQSRALSVEFPEMMSEVIAAQLPKILAGMVKPLLFHKK",binding result,binds
